The values below come from patent US20240018502A1.

B1: MTSP-1 protease domain Q38H/I41A/D60bV/F60eR/Y60gW/D96I/ins97aN/F97Y/T98G/F99L/C122S/G151H/Q175L/Q192D (enzyme)
chain: VVGGTDADEGEWPWQVSLHALGHGHACGASLISPNWLVSAAHCYIDVRGRRWSDPTQWTAFLGLHDQSQRSAPGVQERRLKRIISHPFFNIYNGLDYDIALLELEKPAEYSSMVRPISLPDASHVFPAGKAIWVTGWGHTQYGGTHALILQKGEIRVINQTTCENLLPQLITPRMMCVGFLSGGVDSCDGDSGGPLSSVEADGRIFQAGVVSWGDGCAQRNKPGVYTRLPLFRDWIKENTGV
B2: MTSP-1 protease domain Q38H/I41A/D60bV/F60eR/Y60gW/D96P/ins97aN/F97W/T98G/F99L/C122S/G151H/Q175L/Q192E (enzyme)
chain: VVGGTDADEGEWPWQVSLHALGHGHACGASLISPNWLVSAAHCYIDVRGRRWSDPTQWTAFLGLHDQSQRSAPGVQERRLKRIISHPFFNPWNGLDYDIALLELEKPAEYSSMVRPISLPDASHVFPAGKAIWVTGWGHTQYGGTHALILQKGEIRVINQTTCENLLPQLITPRMMCVGFLSGGVDSCEGDSGGPLSSVEADGRIFQAGVVSWGDGCAQRNKPGVYTRLPLFRDWIKENTGV
B3: MTSP-1 protease domain Q38H/I41A/D60bV/F60eR/Y60gW/D96P/ins97aN/F97W/T98G/F99L/C122S/G151H/Q175L/Q192D (enzyme)
chain: VVGGTDADEGEWPWQVSLHALGHGHACGASLISPNWLVSAAHCYIDVRGRRWSDPTQWTAFLGLHDQSQRSAPGVQERRLKRIISHPFFNPWNGLDYDIALLELEKPAEYSSMVRPISLPDASHVFPAGKAIWVTGWGHTQYGGTHALILQKGEIRVINQTTCENLLPQLITPRMMCVGFLSGGVDSCDGDSGGPLSSVEADGRIFQAGVVSWGDGCAQRNKPGVYTRLPLFRDWIKENTGV
B4: MTSP-1 protease domain Q38H/I41A/D60bV/F60eR/Y60gW/D96I/F97N/T98G/F99L/C122S/G151H/Q175L/Q192D (enzyme)
chain: VVGGTDADEGEWPWQVSLHALGHGHACGASLISPNWLVSAAHCYIDVRGRRWSDPTQWTAFLGLHDQSQRSAPGVQERRLKRIISHPFFNINGLDYDIALLELEKPAEYSSMVRPISLPDASHVFPAGKAIWVTGWGHTQYGGTHALILQKGEIRVINQTTCENLLPQLITPRMMCVGFLSGGVDSCDGDSGGPLSSVEADGRIFQAGVVSWGDGCAQRNKPGVYTRLPLFRDWIKENTGV
B5: MTSP-1 protease domain Q38H/I41A/D60bV/F60eR/Y60gW/F97D/F99L/C122S/G151H/Q175L/Q192D (enzyme)
chain: VVGGTDADEGEWPWQVSLHALGHGHACGASLISPNWLVSAAHCYIDVRGRRWSDPTQWTAFLGLHDQSQRSAPGVQERRLKRIISHPFFNDDTLDYDIALLELEKPAEYSSMVRPISLPDASHVFPAGKAIWVTGWGHTQYGGTHALILQKGEIRVINQTTCENLLPQLITPRMMCVGFLSGGVDSCDGDSGGPLSSVEADGRIFQAGVVSWGDGCAQRNKPGVYTRLPLFRDWIKENTGV
B6: MTSP-1 protease domain Q38H/I41S/D60bT/F60eS/Y60gW/F97D/F99L/C122S/G151N/Q175L/Q192D (enzyme)
chain: VVGGTDADEGEWPWQVSLHALGHGHSCGASLISPNWLVSAAHCYIDTRGSRWSDPTQWTAFLGLHDQSQRSAPGVQERRLKRIISHPFFNDDTLDYDIALLELEKPAEYSSMVRPISLPDASHVFPAGKAIWVTGWGHTQYGGTNALILQKGEIRVINQTTCENLLPQLITPRMMCVGFLSGGVDSCDGDSGGPLSSVEADGRIFQAGVVSWGDGCAQRNKPGVYTRLPLFRDWIKENTGV
B7: MTSP-1 Q38H/I41S/D60bA/Y60gG/ins97aV/F97D/T98P/F99L/C122S/H143T/G151N/Q175L/Q192A (enzyme)
chain: VVGGTDADEGEWPWQVSLHALGHGHSCGASLISPNWLVSAAHCYIDARGFRGSDPTQWTAFLGLHDQSQRSAPGVQERRLKRIISHPFFNDDVPLDYDIALLELEKPAEYSSMVRPISLPDASHVFPAGKAIWVTGWGTTQYGGTNALILQKGEIRVINQTTCENLLPQLITPRMMCVGFLSGGVDSCAGDSGGPLSSVEADGRIFQAGVVSWGDGCAQRNKPGVYTRLPLFRDWIKENTGV
B8: MTSP-1 protease domain Q38H/I41S/D60bT/F60eS/Y60gW/D96F/F97D/ins97aE/T98S/F99L/C122S/G151H/Q175L/Q192A (enzyme)
chain: VVGGTDADEGEWPWQVSLHALGHGHSCGASLISPNWLVSAAHCYIDTRGSRWSDPTQWTAFLGLHDQSQRSAPGVQERRLKRIISHPFFNFDESLDYDIALLELEKPAEYSSMVRPISLPDASHVFPAGKAIWVTGWGHTQYGGTHALILQKGEIRVINQTTCENLLPQLITPRMMCVGFLSGGVDSCAGDSGGPLSSVEADGRIFQAGVVSWGDGCAQRNKPGVYTRLPLFRDWIKENTGV
B9: MTSP-1 protease domain Q38H/I41A/D60bV/F60eR/Y60gW/D96Q/F97E/ins97aD/T98S/F99L/C122S/G151N/Q175L/Q192R (enzyme)
chain: VVGGTDADEGEWPWQVSLHALGHGHACGASLISPNWLVSAAHCYIDVRGRRWSDPTQWTAFLGLHDQSQRSAPGVQERRLKRIISHPFFNQEDSLDYDIALLELEKPAEYSSMVRPISLPDASHVFPAGKAIWVTGWGHTQYGGTNALILQKGEIRVINQTTCENLLPQLITPRMMCVGFLSGGVDSCRGDSGGPLSSVEADGRIFQAGVVSWGDGCAQRNKPGVYTRLPLFRDWIKENTGV
B10: MTSP-1 Q38H/I41S/D60bF/F60eT/ins97aV/F97D/T98P/F99L/C122S/H143Q/G151N/Q175L/Q192G (enzyme)
chain: VVGGTDADEGEWPWQVSLHALGHGHSCGASLISPNWLVSAAHCYIDFRGTRYSDPTQWTAFLGLHDQSQRSAPGVQERRLKRIISHPFFNDDVPLDYDIALLELEKPAEYSSMVRPISLPDASHVFPAGKAIWVTGWGQTQYGGTNALILQKGEIRVINQTTCENLLPQLITPRMMCVGFLSGGVDSCGGDSGGPLSSVEADGRIFQAGVVSWGDGCAQRNKPGVYTRLPLFRDWIKENTGV
B11: MTSP-1 protease domain Q38H/I41S/D60bT/F60eS/Y60gW/D96L/ins97aG/F97D/T98N/F99L/C122S/G151H/Q175L/Q192E (enzyme)
chain: VVGGTDADEGEWPWQVSLHALGHGHSCGASLISPNWLVSAAHCYIDTRGSRWSDPTQWTAFLGLHDQSQRSAPGVQERRLKRIISHPFFNLDGNLDYDIALLELEKPAEYSSMVRPISLPDASHVFPAGKAIWVTGWGHTQYGGTHALILQKGEIRVINQTTCENLLPQLITPRMMCVGFLSGGVDSCEGDSGGPLSSVEADGRIFQAGVVSWGDGCAQRNKPGVYTRLPLFRDWIKENTGV
B12: MTSP-1 Q38H/I41S/D60bF/F60eQ/Y60gF/ins97aV/F97D/T98P/F99L/C122S/H143A/G151N/Q175L/Q192A (enzyme)
chain: VVGGTDADEGEWPWQVSLHALGHGHSCGASLISPNWLVSAAHCYIDFRGQRFSDPTQWTAFLGLHDQSQRSAPGVQERRLKRIISHPFFNDDVPLDYDIALLELEKPAEYSSMVRPISLPDASHVFPAGKAIWVTGWGATQYGGTNALILQKGEIRVINQTTCENLLPQLITPRMMCVGFLSGGVDSCAGDSGGPLSSVEADGRIFQAGVVSWGDGCAQRNKPGVYTRLPLFRDWIKENTGV
B13: MTSP-1 Q38H/I41S/D60bT/F60eH/Y60gF/ins97aV/F97D/T98P/F99L/C122S/H143R/G151N/Q175L/Q192S (enzyme)
chain: VVGGTDADEGEWPWQVSLHALGHGHSCGASLISPNWLVSAAHCYIDTRGHRFSDPTQWTAFLGLHDQSQRSAPGVQERRLKRIISHPFFNDDVPLDYDIALLELEKPAEYSSMVRPISLPDASHVFPAGKAIWVTGWGRTQYGGTNALILQKGEIRVINQTTCENLLPQLITPRMMCVGFLSGGVDSCSGDSGGPLSSVEADGRIFQAGVVSWGDGCAQRNKPGVYTRLPLFRDWIKENTGV
B14: MTSP-1 protease domain Q38H/I41S/D60bT/F60eT/ins97aV/F97D/T98P/F99L/C122S/H143Q/G151Q/Q175L/Q192G (enzyme)
chain: VVGGTDADEGEWPWQVSLHALGHGHSCGASLISPNWLVSAAHCYIDTRGTRYSDPTQWTAFLGLHDQSQRSAPGVQERRLKRIISHPFFNDDVPLDYDIALLELEKPAEYSSMVRPISLPDASHVFPAGKAIWVTGWGQTQYGGTQALILQKGEIRVINQTTCENLLPQLITPRMMCVGFLSGGVDSCGGDSGGPLSSVEADGRIFQAGVVSWGDGCAQRNKPGVYTRLPLFRDWIKENTGV
B15: MTSP-1 protease domain Q38H/I41A/D60bV/F60eR/Y60gW/D96P/ins97aN/F97W/T98G/F99L/C122S/G151N/Q175L/Q192D (enzyme)
chain: VVGGTDADEGEWPWQVSLHALGHGHACGASLISPNWLVSAAHCYIDVRGRRWSDPTQWTAFLGLHDQSQRSAPGVQERRLKRIISHPFFNPWNGLDYDIALLELEKPAEYSSMVRPISLPDASHVFPAGKAIWVTGWGHTQYGGTNALILQKGEIRVINQTTCENLLPQLITPRMMCVGFLSGGVDSCDGDSGGPLSSVEADGRIFQAGVVSWGDGCAQRNKPGVYTRLPLFRDWIKENTGV
B16: MTSP-1 protease domain Q38H/I41S/D60bT/F60eS/Y60gW/D96K/ins97aV/F97G/T98P/F99L/C122S/G151H/Q175L/Q192D (enzyme)
chain: VVGGTDADEGEWPWQVSLHALGHGHSCGASLISPNWLVSAAHCYIDTRGSRWSDPTQWTAFLGLHDQSQRSAPGVQERRLKRIISHPFFNKGVPLDYDIALLELEKPAEYSSMVRPISLPDASHVFPAGKAIWVTGWGHTQYGGTHALILQKGEIRVINQTTCENLLPQLITPRMMCVGFLSGGVDSCDGDSGGPLSSVEADGRIFQAGVVSWGDGCAQRNKPGVYTRLPLFRDWIKENTGV
B17: MTSP-1 protease domain Q38H/I41S/D60bS/F60eQ/ins97aV/F97D/T98P/F99L/C122S/H143A/G151N/Q175L/Q192G (enzyme)
chain: VVGGTDADEGEWPWQVSLHALGHGHSCGASLISPNWLVSAAHCYIDSRGQRYSDPTQWTAFLGLHDQSQRSAPGVQERRLKRIISHPFFNDDVPLDYDIALLELEKPAEYSSMVRPISLPDASHVFPAGKAIWVTGWGATQYGGTNALILQKGEIRVINQTTCENLLPQLITPRMMCVGFLSGGVDSCGGDSGGPLSSVEADGRIFQAGVVSWGDGCAQRNKPGVYTRLPLFRDWIKENTGV
B18: MTSP-1 protease domain Q38H/I41S/D60bQ/F60eQ/F97D/ins97aV/T98P/F99L/C122S/H143Q/G151Q/Q175L/Q192G (enzyme)
chain: VVGGTDADEGEWPWQVSLHALGHGHSCGASLISPNWLVSAAHCYIDQRGQRYSDPTQWTAFLGLHDQSQRSAPGVQERRLKRIISHPFFNDDVPLDYDIALLELEKPAEYSSMVRPISLPDASHVFPAGKAIWVTGWGQTQYGGTQALILQKGEIRVINQTTCENLLPQLITPRMMCVGFLSGGVDSCGGDSGGPLSSVEADGRIFQAGVVSWGDGCAQRNKPGVYTRLPLFRDWIKENTGV
B19: MTSP-1 Q38H/I41S/D60bS/F60eQ/Y60gF/ins97aV/F97D/T98P/F99L/C122S/H143R/G151N/Q175L/Q192T (enzyme)
chain: VVGGTDADEGEWPWQVSLHALGHGHSCGASLISPNWLVSAAHCYIDSRGQRFSDPTQWTAFLGLHDQSQRSAPGVQERRLKRIISHPFFNDDVPLDYDIALLELEKPAEYSSMVRPISLPDASHVFPAGKAIWVTGWGRTQYGGTNALILQKGEIRVINQTTCENLLPQLITPRMMCVGFLSGGVDSCTGDSGGPLSSVEADGRIFQAGVVSWGDGCAQRNKPGVYTRLPLFRDWIKENTGV
B20: MTSP-1 protease domain Q38H/I41S/D60bT/F60eS/Y60gW/D96Y/ins97aV/F97E/T98G/F99L/C122S/G151N/Q175L/Q192D (enzyme)
chain: VVGGTDADEGEWPWQVSLHALGHGHSCGASLISPNWLVSAAHCYIDTRGSRWSDPTQWTAFLGLHDQSQRSAPGVQERRLKRIISHPFFNYEVGLDYDIALLELEKPAEYSSMVRPISLPDASHVFPAGKAIWVTGWGHTQYGGTNALILQKGEIRVINQTTCENLLPQLITPRMMCVGFLSGGVDSCDGDSGGPLSSVEADGRIFQAGVVSWGDGCAQRNKPGVYTRLPLFRDWIKENTGV

Chain of plasma purified human complement protein C3 (human) (P01024 23-667, chain 1 of 2): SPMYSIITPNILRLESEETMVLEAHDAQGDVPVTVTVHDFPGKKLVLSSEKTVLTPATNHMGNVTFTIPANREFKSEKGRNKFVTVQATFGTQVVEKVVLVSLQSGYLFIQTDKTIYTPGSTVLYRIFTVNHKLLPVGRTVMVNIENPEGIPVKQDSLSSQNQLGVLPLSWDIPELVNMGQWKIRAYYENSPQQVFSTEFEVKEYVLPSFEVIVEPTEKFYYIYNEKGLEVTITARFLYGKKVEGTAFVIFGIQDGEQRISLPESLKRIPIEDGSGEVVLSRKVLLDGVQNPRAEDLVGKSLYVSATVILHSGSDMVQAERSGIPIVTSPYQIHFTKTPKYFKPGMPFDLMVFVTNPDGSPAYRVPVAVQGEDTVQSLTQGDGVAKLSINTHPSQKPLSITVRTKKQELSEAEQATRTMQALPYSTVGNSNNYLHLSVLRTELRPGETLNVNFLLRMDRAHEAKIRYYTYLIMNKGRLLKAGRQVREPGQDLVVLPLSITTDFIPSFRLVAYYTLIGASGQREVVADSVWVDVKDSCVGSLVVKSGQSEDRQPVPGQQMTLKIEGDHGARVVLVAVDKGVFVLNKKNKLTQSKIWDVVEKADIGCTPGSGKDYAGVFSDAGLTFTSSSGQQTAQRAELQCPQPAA
Chain of plasma purified human complement protein C3 (human) (P01024 672-1663, chain 2 of 2): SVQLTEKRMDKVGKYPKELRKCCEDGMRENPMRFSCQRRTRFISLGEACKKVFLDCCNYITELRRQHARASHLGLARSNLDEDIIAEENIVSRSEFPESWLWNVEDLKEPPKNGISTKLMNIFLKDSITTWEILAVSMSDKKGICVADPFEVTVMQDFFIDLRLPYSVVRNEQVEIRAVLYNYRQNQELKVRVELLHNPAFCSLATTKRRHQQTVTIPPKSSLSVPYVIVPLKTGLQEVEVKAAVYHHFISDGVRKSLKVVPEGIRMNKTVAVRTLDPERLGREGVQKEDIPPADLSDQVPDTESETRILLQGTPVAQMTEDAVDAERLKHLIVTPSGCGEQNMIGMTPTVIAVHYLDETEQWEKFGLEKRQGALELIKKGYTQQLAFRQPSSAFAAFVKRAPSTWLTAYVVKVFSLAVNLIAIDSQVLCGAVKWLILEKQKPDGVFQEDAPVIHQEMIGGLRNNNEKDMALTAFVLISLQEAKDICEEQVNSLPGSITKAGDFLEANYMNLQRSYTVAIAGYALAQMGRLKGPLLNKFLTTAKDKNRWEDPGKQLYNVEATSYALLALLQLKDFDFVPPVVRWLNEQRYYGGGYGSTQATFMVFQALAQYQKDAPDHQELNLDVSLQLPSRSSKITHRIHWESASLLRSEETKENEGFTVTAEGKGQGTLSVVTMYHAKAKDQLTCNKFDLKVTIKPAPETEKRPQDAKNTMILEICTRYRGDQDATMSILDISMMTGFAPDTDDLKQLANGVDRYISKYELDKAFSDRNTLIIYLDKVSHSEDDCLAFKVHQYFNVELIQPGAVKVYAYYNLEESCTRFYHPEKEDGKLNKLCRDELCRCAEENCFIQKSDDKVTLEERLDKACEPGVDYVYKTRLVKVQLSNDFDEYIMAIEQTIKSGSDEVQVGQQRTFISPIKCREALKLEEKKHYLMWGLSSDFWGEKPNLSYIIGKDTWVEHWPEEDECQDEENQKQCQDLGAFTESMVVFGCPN

This test addresses plasma purified human complement protein C3 (human) (UniProt P01024). As to the kind of experiment: cell-based or functional assay.
B1 registered an EC50 hC3 cleavage of 1.57 nM. Still for that read-out and setting: in the case of B2 it was 1.11 nM. In turn, B3 gave an EC50 hC3 cleavage of 1.83 nM. Molecule B4 yielded an EC50 hC3 cleavage of 2.52 nM. On to B5, for which the EC50 hC3 cleavage amounted to 3.72 nM.

Molecule B6 gave an EC50 hC3 cleavage of 4.9 nM.

B7 registered an EC50 of hC3 cleavage of 4.22 nM. In the case of B8, the EC50 hC3 cleavage worked out at 1.17 nM. Same read-out and setting: in the case of B9 it was 4.6 nM. Regarding B10, the EC50 of hC3 cleavage amounted to 3.07 nM. With B11, the EC50 hC3 cleavage stood at 1.59 nM. Molecule B12 showed an EC50 of hC3 cleavage of 4.58 nM. Still for that read-out and setting: the value for B13 was 21 nM. B14 yielded an EC50 hC3 cleavage of 6.69 nM. In turn, B15 showed an EC50 hC3 cleavage of 2.54 nM. On the same count and under the same terms, in the case of B16 it was 6.86 nM; in that of B17, 26.3 nM. B18: the EC50 hC3 cleavage stood at 8.5 nM. With B19, the EC50 of hC3 cleavage stood at 12.9 nM.

For B20, the EC50 hC3 cleavage turned out to be 4.13 nM.
